Experimental data: patent publication US20140248303A1 (ST JUDE CHILDREN S RESEARCH HOSPITAL, published 2014)

B1: CbpA-R2 (other)
chain: PEKKVAEAEKKVEEAKKKAEDQKEEDRRNYPTNTYKTLELEIAESDVEVKKAELELVKEEAKEPRNEEKVKQAKAEVESKKAEATRLEKIKTDRKKAEEEAKRKAAEEDKVKEKP
B2: CbpA-N (domain N) (other)
chain: ENEGATQVPTSSNRANESQAEQGEQPKKLDSERDKARKEVEEYVKKIVGESYAKSTKKRHTITVALVNELNNIKNEYLNKIVESTSESQLQILMMESRSKVDEAVSKFEKDSSSSSSSDSSTKPEASDTAKPNKPT
notes: On latex microspheres
B3: CbpA-R12 (construct containing domain 1 and domain 2) (other)
chain: EPGEKVAEAKKKVEEAEKKAKDQKEEDRRNYPTITYKTLELEIAESDVEVKKAELELVKVKANEPRDEQKIKQAEAEVESKQAEATRLKKIKTDREEAEEEAKRRADAKEQGKPKGRAKRGVPGELATPDKKENDAKSSDSSVGEETLPSPSLKPEKKVAEAEKKVEEAKKKAEDQKEEDRRNYPTNTYKTLELEIAESDVEVKKAELELVKEEAKEPRNEEKVKQAKAEVESKKAEATRLEKIKTDRKKAEEEAKRKAAEEDKVKEK
notes: On latex microspheres

Molecular target: T1, 37/67 laminin receptor (LR) (Homo sapiens (Human), UniProt P08865 2-295)
T1 construct: also called LRP
Test: adhesion of construct-labeled latex microspheres to fixed TNF-activated RBCEC6 cells

Binder | bead adherence to RBCEC6 cells, % (compared with full length CbpA-NR12 beads) | binding result
B1 | 6% | no binding
B2 | 23% | no binding
B3 | 226% | 
